In assay [1] the target is E. coli ρ G150D with the sensor cysteines C84/C405 (X1), untagged (E. coli MG1655) (UniProt P0AG30). Briefly: cross-linking; BMOE (0.5 mM) crosslinking of 1 μM purified ρ in PN23 buffer without nucleotide; LDS-PAGE.
Assay [2] shares this target. Briefly: cross-linking; BMOE (0.5 mM) crosslinking of 1 μM purified untagged ρ in PN23 buffer with ppGpp or pppGpp; LDS-PAGE.
The target is the same in assay [3]. Briefly: cross-linking; BMOE (0.5 mM) crosslinking of 1 μM purified ρ in PN23 buffer with 2 mM ADP, 10 min at room temperature; LDS-PAGE.

For 1 substance, percent of ρ in the filament fraction and stoichiometry N results are on record in PMC11829017.

Usually stoichiometry N stands for a count of units in the complex or per binding partner.

For “E. coli ρ G150D with the sensor cysteines C84/C405 (X1), untagged (from UniProt P0AG30 1-419) (enzyme)”, the percent of ρ in the filament fraction in assay [1] is 18%; in assay [3] it was 56%. In addition, the stoichiometry N in assay [2] was determined as 12.
